Common to all, as to experiment: cell-based or functional assay
Assay [1] deals with T1, human GPRC5D (human, UniProt Q9NZD1 1-345).
For assay [2], the target named is T1, human GPRC5D. The source holds these as a separate data set.
For assay [3], the target named is T1, human GPRC5D. This is another data set of the same source.

T1 sequence (Q9NZD1 whole entry): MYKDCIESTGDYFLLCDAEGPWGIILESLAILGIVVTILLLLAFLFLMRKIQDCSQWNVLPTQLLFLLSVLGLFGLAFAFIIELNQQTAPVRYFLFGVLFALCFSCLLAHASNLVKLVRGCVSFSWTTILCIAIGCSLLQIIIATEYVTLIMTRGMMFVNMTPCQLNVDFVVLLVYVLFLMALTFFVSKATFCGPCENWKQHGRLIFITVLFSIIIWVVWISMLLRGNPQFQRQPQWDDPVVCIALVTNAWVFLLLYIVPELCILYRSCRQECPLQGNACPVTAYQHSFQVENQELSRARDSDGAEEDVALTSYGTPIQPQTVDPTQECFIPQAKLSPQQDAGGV

B1: P1AE5731 (antibody, V domains shown)
VH: ELQLLESGGGLVQPGGSLRLSCAASGFTFSKYAMAWVRQAPGKGLEWVASISTGGVNTYYADSVKGRFTISRDNAKNTLYLQMNSLRAEDTAVYYCATHTGDYFDYWGQGTMVTVSS
VL: DIQMTQSPSSLSASVGDRVTITCRASQSVSISGINLMNWYQQKPGQQPKLLIYHASILASGVPSRFSGSGSGTDFTLTISSLQPEDFATYYCQQTRESPLTFGQGTRLEIK
As to B1, in the assay with human GPRC5D [1], the “CAR-J2 EC50 (PGLALA-CAR-J activation, L363 target cells)” value was 2.3 ng/mL.

B2: 5E11-TCB (bispecific antibody, human IgG1, kappa, L234A L235A)
light 1: DIVLTQSPALAVSPGQRATISCRASQSVSISGINLMNWYQQKPGQQPKLLIYHASILASGIPTRFSGSGSGTDFTLTIDPVQADDIATYYCQQTRESPLTFGSGTNLEIKRTVAAPSVFIFPPSDRKLKSGTASVVCLLNNFYPREAKVQWKVDNALQSGNSQESVTEQDSKDSTYSLSSTLTLSKADYEKHKVYACEVTHQGLSSPVTKSFNRGEC
light 2: EVQLLESGGGLVQPGGSLRLSCAASGFTFSTYAMNWVRQAPGKGLEWVSRIRSKYNNYATYYADSVKGRFTISRDDSKNTLYLQMNSLRAEDTAVYYCVRHGNFGNSYVSWFAYWGQGTLVTVSSASVAAPSVFIFPPSDEQLKSGTASVVCLLNNFYPREAKVQWKVDNALQSGNSQESVTEQDSKDSTYSLSSTLTLSKADYEKHKVYACEVTHQGLSSPVTKSFNRGEC
heavy 1: ELQLEQSGGGLVQPGGSLTLSCAASGFTFSKYAMAWVRQAPTKGLEWVASISTGGVNTYYRDSVKARFTISRDNAKNTQYLQMDSLRSEDTATYYCATHTGDYFDYWGQGVMVTVSSASTKGPSVFPLAPSSKSTSGGTAALGCLVEDYFPEPVTVSWNSGALTSGVHTFPAVLQSSGLYSLSSVVTVPSSSLGTQTYICNVNHKPSNTKVDEKVEPKSCDKTHTCPPCPAPEAAGGPSVFLFPPKPKDTLMISRTPEVTCVVVDVSHEDPEVKFNWYVDGVEVHNAKTKPREEQYNSTYRVVSVLTVLHQDWLNGKEYKCKVSNKALGAPIEKTISKAKGQPREPQVCTLPPSRDELTKNQVSLSCAVKGFYPSDIAVEWESNGQPENNYKTTPPVLDSDGSFFLVSKLTVDKSRWQQGNVFSCSVMHEALHNHYTQKSLSLSPGK
heavy 2: not shown
Turning to B2, in the assay with human GPRC5D [2], the “EC50 of T cell cytotoxicity (LDH release) on AMO-1 cells” value was 0.014 nM, the “EC50 of T cell cytotoxicity (LDH release) on L363 cells” value was determined as 0.012 nM, the “EC50 of T cell cytotoxicity (LDH release) on NCI-H929 cells” value worked out at 0.007 nM and the “EC50 of T cell cytotoxicity (LDH release) on RPMI-8226 cells” value was found to be 0.024 nM. Besides, in the assay with human GPRC5D [3], the “EC50 of in vitro killing, AMO-1 cells” value came to 0.008 nM; the “EC50 of in vitro killing, EJM cells” value amounted to 0.011 nM; the “EC50 of in vitro killing, L363 cells” value is 0.017 nM; the “EC50 of in vitro killing, MOLP-2 cells” value is 0.018 nM. Besides, in the assay with human GPRC5D [3], the “EC50 of in vitro killing, NCI-H929 cells” value worked out at 0.007 nM; the “EC50 of in vitro killing, OPM-2 cells” value was 0.002 nM; the “EC50 of in vitro killing, RPMI cells” value amounted to 0.064 nM.

B3: ET150-5-TCB (bispecific antibody, human IgG1, lambda, L234A L235A)
light 1: QSVLTQPPSASGTPGQRVTISCSGSRSNVGGNYVFWYQQVPGATPKLLIYRSNQRPSGVPDRFAGSKSGSSASLAISGLRSEDEADYYCATWDDSLSGFVFGTGTKVTVLGQPKAAPSVTLFPPSSKKLQANKATLVCLISDFYPGAVTVAWKADSSPVKAGVETTTPSKQSNNKYAASSYLSLTPEQWKSHRSYSCQVTHEGSTVEKTVAPTECS
light 2: B2 light 2
heavy 1: EVQLVESGGGLVKPGGSLRLSCAASGFTFSDYYMSWIRQAPGKGLEWVSYISSSGSTIYYADSVKGRFTISRDNAKNSLYLQMNSLRAEDTAVYYCARGYGKAYDQWGQGTLVTVSSASTKGPSVFPLAPSSKSTSGGTAALGCLVEDYFPEPVTVSWNSGALTSGVHTFPAVLQSSGLYSLSSVVTVPSSSLGTQTYICNVNHKPSNTKVDEKVEPKSCDKTHTCPPCPAPEAAGGPSVFLFPPKPKDTLMISRTPEVTCVVVDVSHEDPEVKFNWYVDGVEVHNAKTKPREEQYNSTYRVVSVLTVLHQDWLNGKEYKCKVSNKALGAPIEKTISKAKGQPREPQVCTLPPSRDELTKNQVSLSCAVKGFYPSDIAVEWESNGQPENNYKTTPPVLDSDGSFFLVSKLTVDKSRWQQGNVFSCSVMHEALHNHYTQKSLSLSPGK
heavy 2: not shown
For B3, in the assay with human GPRC5D [2], the “EC50 of T cell cytotoxicity (LDH release) on AMO-1 cells” value was 0.0835 nM, the “EC50 of T cell cytotoxicity (LDH release) on L363 cells” value was 0.768 nM, the “EC50 of T cell cytotoxicity (LDH release) on NCI-H929 cells” value amounted to 0.833 nM and the “EC50 of T cell cytotoxicity (LDH release) on RPMI-8226 cells” value was determined as 0.797 nM.

The values are drawn from US20210054094A1 (Hoffmann-La Roche, published 2021).
